Reference: the supplement of paper PMC9112550, “Optimization of the antimicrobial peptide Bac7 by deep mutational scanning” (BMC Biology, 2022)

Test system: Escherichia coli TOP10
Experiment: shrunken log2 fold change of peptide-encoding DNA abundance (4.5 h post-induction vs induction); higher = less antimicrobial activity (less host growth inhibition)
Conditions: time post-induction: 4.5 h; library: site-saturation at positions 5, 18, 19, 20
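Also: peptides expressed intracellularly from a pBAD plasmid library in pooled LB shake-flask culture, induced with 0.3% L-arabinose, DNA abundance read by NGS, three biological replicates, DESeq2 with apeglm shrinkage.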

Row | Sequence | shrunken log2 fold change
1 | RRIRERPPRLPRPRPRPRFMPRP | -0.0944
2 | RRIRLRPPRLPRPRPRPVFNPRP | -0.448
3 | RRIRPRPPRLPRPRPRPPVNPRP | 0.15
4 | RRIRSRPPRLPRPRPRPYSSPRP | -0.271
5 | RRIRTRPPRLPRPRPRPAPFPRP | 0.0263
6 | RRIRARPPRLPRPRPRPHNCPRP | -0.162
7 | RRIRTRPPRLPRPRPRPQLLPRP | 0.0259
8 | RRIRARPPRLPRPRPRPRCYPRP | 0.0779
9 | RRIRERPPRLPRPRPRPSKMPRP | -0.141
10 | RRIRGRPPRLPRPRPRPLHRPRP | 0.187
11 | RRIRTRPPRLPRPRPRPYRFPRP | -0.0191
12 | RRIRMRPPRLPRPRPRPVRSPRP | 1.23
13 | RRIRWRPPRLPRPRPRPTNNPRP | 0.0375
14 | RRIRNRPPRLPRPRPRPWVHPRP | -0.288
15 | RRIRDRPPRLPRPRPRPIAMPRP | 0.384
16 | RRIRCRPPRLPRPRPRPFIGPRP | -0.228
17 | RRIRHRPPRLPRPRPRPCPDPRP | 0.0299
18 | RRIRKRPPRLPRPRPRPPKEPRP | 0.944
19 | RRIRDRPPRLPRPRPRPAQDPRP | 0.684
20 | RRIRVRPPRLPRPRPRPMKTPRP | 0.00695
21 | RRIRVRPPRLPRPRPRPGMSPRP | 0.303
22 | RRIRKRPPRLPRPRPRPVHIPRP | -0.021
23 | RRIRHRPPRLPRPRPRPKWSPRP | 0.0617
24 | RRIRVRPPRLPRPRPRPHVDPRP | 0.0108
25 | RRIRSRPPRLPRPRPRPCPHPRP | -0.283

Row | Sequence | shrunken log2 fold change
26 | RRIRWRPPRLPRPRPRPNVCPRP | 0.0917
27 | RRIRNRPPRLPRPRPRPTMTPRP | 0.149
28 | RRIRRRPPRLPRPRPRPYTEPRP | -0.452
29 | RRIRERPPRLPRPRPRPHPIPRP | -0.0808
30 | RRIRDRPPRLPRPRPRPLPQPRP | 0.282
31 | RRIRQRPPRLPRPRPRPKCGPRP | 0.354
32 | RRIRKRPPRLPRPRPRPGNFPRP | -0.373
33 | RRIRERPPRLPRPRPRPVYHPRP | -1.35
34 | RRIRYRPPRLPRPRPRPSSAPRP | -0.197
35 | RRIRVRPPRLPRPRPRPKSIPRP | -0.172
36 | RRIRCRPPRLPRPRPRPYGPPRP | -0.398
37 | RRIRDRPPRLPRPRPRPDPFPRP | -0.00228
38 | RRIRWRPPRLPRPRPRPECFPRP | 0.671
39 | RRIRERPPRLPRPRPRPISTPRP | -0.346
40 | RRIRERPPRLPRPRPRPRQNPRP | 0.177
41 | RRIRDRPPRLPRPRPRPGHYPRP | 0.0149
42 | RRIRGRPPRLPRPRPRPKLGPRP | 1.12
43 | RRIRPRPPRLPRPRPRPVKAPRP | 0.216
44 | RRIRPRPPRLPRPRPRPLWAPRP | 0.343
45 | RRIRMRPPRLPRPRPRPDYDPRP | 0.635
46 | RRIRCRPPRLPRPRPRPCLEPRP | -0.0191
47 | RRIRLRPPRLPRPRPRPYCNPRP | -0.963
48 | RRIRQRPPRLPRPRPRPRSMPRP | 0.33
49 | RRIRKRPPRLPRPRPRPDVAPRP | 0.0256
50 | RRIRFRPPRLPRPRPRPFAKPRP | -0.026

Row | Sequence | shrunken log2 fold change
51 | RRIRIRPPRLPRPRPRPLHKPRP | -0.165
52 | RRIRVRPPRLPRPRPRPNSGPRP | -0.496
53 | RRIRKRPPRLPRPRPRPFDYPRP | -0.121
54 | RRIRFRPPRLPRPRPRPVPLPRP | -0.118
55 | RRIRMRPPRLPRPRPRPNWMPRP | -0.0131
56 | RRIRWRPPRLPRPRPRPPHMPRP | 0.112
57 | RRIRQRPPRLPRPRPRPPEDPRP | 0.0255
58 | RRIRIRPPRLPRPRPRPYFFPRP | -0.875
59 | RRIRYRPPRLPRPRPRPIHFPRP | -0.679
60 | RRIRPRPPRLPRPRPRPGLRPRP | 3.24
61 | RRIRGRPPRLPRPRPRPPWIPRP | 0.256
62 | RRIRQRPPRLPRPRPRPSLAPRP | 0.404
63 | RRIRQRPPRLPRPRPRPWQRPRP | -0.0557
64 | RRIRLRPPRLPRPRPRPQQVPRP | 0.107
65 | RRIRHRPPRLPRPRPRPITTPRP | -0.0193
66 | RRIRFRPPRLPRPRPRPVEVPRP | -1.6
67 | RRIRCRPPRLPRPRPRPWCAPRP | -0.0685
68 | RRIRGRPPRLPRPRPRPTAAPRP | 1.97
69 | RRIRRRPPRLPRPRPRPVRWPRP | 0.825
70 | RRIRHRPPRLPRPRPRPEAMPRP | -0.00857
71 | RRIRHRPPRLPRPRPRPMVWPRP | 0.0787
72 | RRIRTRPPRLPRPRPRPQEYPRP | -0.0331
73 | RRIRKRPPRLPRPRPRPENAPRP | 0.116
74 | RRIRERPPRLPRPRPRPFWFPRP | -0.303
75 | RRIRYRPPRLPRPRPRPFRYPRP | -0.315

Row | Sequence | shrunken log2 fold change
76 | RRIRQRPPRLPRPRPRPIKFPRP | -0.282
77 | RRIRCRPPRLPRPRPRPFWRPRP | 0.0785
78 | RRIRTRPPRLPRPRPRPEWPPRP | 0.351
79 | RRIRLRPPRLPRPRPRPFPSPRP | -0.173
80 | RRIRNRPPRLPRPRPRPVGEPRP | 0.112
81 | RRIRPRPPRLPRPRPRPDSMPRP | -0.326
82 | RRIRKRPPRLPRPRPRPFQKPRP | 0.0267
83 | RRIRTRPPRLPRPRPRPHENPRP | 0.00752
84 | RRIRGRPPRLPRPRPRPPVGPRP | 0.579
85 | RRIRHRPPRLPRPRPRPKACPRP | -0.01
86 | RRIRCRPPRLPRPRPRPIRWPRP | 0.034
87 | RRIRDRPPRLPRPRPRPTEKPRP | 0.0633
88 | RRIRCRPPRLPRPRPRPFMVPRP | -0.502
89 | RRIRSRPPRLPRPRPRPDNEPRP | -0.0519
90 | RRIRVRPPRLPRPRPRPWYFPRP | -0.619
91 | RRIRVRPPRLPRPRPRPNFHPRP | -0.115
92 | RRIRFRPPRLPRPRPRPDYSPRP | -0.458
93 | RRIRVRPPRLPRPRPRPKHQPRP | 0.0697
94 | RRIRFRPPRLPRPRPRPPDQPRP | 0.63
95 | RRIRVRPPRLPRPRPRPGTYPRP | -0.166
96 | RRIRWRPPRLPRPRPRPSHGPRP | -0.583
97 | RRIRTRPPRLPRPRPRPGVNPRP | -0.0412
98 | RRIRERPPRLPRPRPRPKRQPRP | -0.0958
99 | RRIRRRPPRLPRPRPRPHTMPRP | -0.0621
100 | RRIRWRPPRLPRPRPRPPHEPRP | 0.0628

Row | Sequence | shrunken log2 fold change
101 | RRIRFRPPRLPRPRPRPEKLPRP | -0.0722
102 | RRIRRRPPRLPRPRPRPPFPPRP | 0.645
103 | RRIRVRPPRLPRPRPRPLQGPRP | -0.292
104 | RRIRQRPPRLPRPRPRPPILPRP | -0.13
105 | RRIRFRPPRLPRPRPRPQCHPRP | -0.358
106 | RRIRCRPPRLPRPRPRPLEWPRP | 0.0823
107 | RRIRNRPPRLPRPRPRPPMPPRP | 0.0312
108 | RRIRMRPPRLPRPRPRPLPHPRP | 0.407
109 | RRIRYRPPRLPRPRPRPSTPPRP | -0.24
110 | RRIRVRPPRLPRPRPRPEQLPRP | 0.185
111 | RRIRYRPPRLPRPRPRPGMAPRP | -0.262
112 | RRIRARPPRLPRPRPRPIHPPRP | 0.0444
113 | RRIRGRPPRLPRPRPRPHHVPRP | -0.00478
114 | RRIRFRPPRLPRPRPRPDATPRP | 0.486
115 | RRIRYRPPRLPRPRPRPHADPRP | -0.0359
116 | RRIRDRPPRLPRPRPRPIVQPRP | -0.267
117 | RRIRWRPPRLPRPRPRPGATPRP | 1.02
118 | RRIRRRPPRLPRPRPRPRRWPRP | 0.386
119 | RRIRGRPPRLPRPRPRPLKYPRP | 0.145
120 | RRIRKRPPRLPRPRPRPTTYPRP | 0.00371
121 | RRIRDRPPRLPRPRPRPCQFPRP | 0.0215
122 | RRIRWRPPRLPRPRPRPGKMPRP | 0.0641
123 | RRIRMRPPRLPRPRPRPVICPRP | 0.00711
124 | RRIRQRPPRLPRPRPRPLCNPRP | -0.178
125 | RRIRARPPRLPRPRPRPNMNPRP | -0.212
